The text below walks through data of FireProtDB (doi:10.1016/j.str.2006.07.007).

First the molecules themselves.
B1: Azurin, P00282 (parent)
chain: MLRKLAAVSLLSLLSAPLLAAECSVDIQGNDQMQFNTNAITVDKSCKQFTVNLSHPGNLPKNVMGHNWVLSTAADMQGVVTDGMASGLDKDYLKPDDSRVIAHTKLIGSGEKDSVTFDVSKLKEGEQYMFFCTFPGHSALMKGTLTLK

The data set covers variants of B1. As to conditions: Pseudomonas aeruginosa (strain ATCC 15692 / DSM 22644 / CIP 104116 / JCM 14847 / LMG 12228 / 1C / PRS 101 / PAO1); pH 7; 25 °C; GdnHCl; Fluorescence; Phosphate 100 mM; reversible: Yes; structure 5AZU; whole UniProt chain shown.

With MLRKLAAVSLLSLLSAPLLAAECSVDIQGNDQMQFNTNAITVDKSCKQFTVNLSHPGNLPKNVMGHNWVLSTAADMQGVVTDGMASGLDKDYLKPDDSRVIGHTKLIGSGEKDSVTFDVSKLKEGEQYMFFCTFPGHSALMKGTLTLK [A102G], the “ddG of mutation (higher = less stable)” value was determined as 3.11 kcal/mol and the unfolding free energy came to 2.87 kcal/mol.
As for MLRKLAAVSLLSLLSAPLLAAECSVDIQGNDQMQFNTNAITVDKSCKQFTVNLSHPGNLPKNVMGHNWVLSTAADMQGVGTDGMASGLDKDYLKPDDSRVIAHTKLIGSGEKDSVTFDVSKLKEGEQYMFFCTFPGHSALMKGTLTLK [V80G], the “ddG of mutation (higher = less stable)” value turned out to be 3.11 kcal/mol and the unfolding free energy amounted to 2.87 kcal/mol.
With MLRKLAAVSLLSLLSAPLLAAECSVDAQGNDQMQFNTNAITVDKSCKQFTVNLSHPGNLPKNVMGHNWVLSTAADMQGVVTDGMASGLDKDYLKPDDSRVIAHTKLIGSGEKDSVTFDVSKLKEGEQYMFFCTFPGHSALMKGTLTLK [I27A], the “ddG of mutation (higher = less stable)” value was determined as 3.11 kcal/mol and the unfolding free energy is 2.87 kcal/mol.
Turning to MLRKLAAVSLLSLLSAPLLAAECSADIQGNDQMQFNTNAITVDKSCKQFTVNLSHPGNLPKNVMGHNWVLSTAADMQGVVTDGMASGLDKDYLKPDDSRVIAHTKLIGSGEKDSVTFDVSKLKEGEQYMFFCTFPGHSALMKGTLTLK [V25A], the “ddG of mutation (higher = less stable)” value stood at 0 kcal/mol and the unfolding free energy turned out to be 5.98 kcal/mol.
As to MLRKLAAVSLLSLLSAPLLAAECSVDIQGNDQMQFNTNAITVDKSCKQFTVNLSHPGNLPKNVMGHNWVLSTAADMQGVVTDGMASGLDKDYLKPDDSRVIAHTKLIGSGEKDSVTFDVSKLKEGEQYMFFCTFPGHSALMKGTATLK [L145A], the “ddG of mutation (higher = less stable)” value amounted to 0.72 kcal/mol and the unfolding free energy worked out at 5.26 kcal/mol.
